How the values were obtained:
[1] = system: CAD murine neuroblastoma cells; test: Q333P NFL intracytoplasmic inclusions in CAD cells; assay type: cell-based; settings: co-overexpression with Q333P mutant NFL
Experimental: In a separate set of experiments, the inventors assayed the ability of DJ-1 to inhibit aggregation of a second substrate, neurofilament light subunit (NFL). Overexpression of a mutant form of human NFL, Q333P, by transient transfection of CAD murine neuroblastoma cells, leads to the accumulation of intracytoplasmic inclusions (Perez-Olle et al. 2002).
(§1) Quantification of CAD cell aggregates was performed using a Zeiss LSM Pascal confocal microscope (Zeiss, Oberkochen, Germany) with a 20× long working distance lens. Images were imported to NIH Image J for analysis. Images from tenrandomly selected fields in each of three wells were quantified for each condition. Cells containing at least one intracytoplasmic aggregate, independent of size or number per cell, were scored as positive for aggregates. This number was divided by the number of transfected cells per field, determined by GFP fluorescence.

[2] = system: CAD murine neuroblastoma cells; test: αSyn intracytoplasmic inclusions in CAD cells; assay type: cell-based; settings: co-overexpression with αSyn
Experimental: To further evaluate αSyn aggregation, the inventors performed immunohistochemical analyses of CAD cells transfected with αSyn along with DJ-1 or control vector (FIG. 25). Overexpression of αSyn in neuroblastoma cells induces the formation of visible cytoplasmic aggregates (Lee and Lee 2002) (FIGS. 25J-25L).
as §1

[3] = CD thermal denaturation; assay type: physicochemical; settings: CD at 222 nm, range studied 0-90° C.
Description: (G) Redox regulation is unaffected by the C106A mutation.
Molecular chaperones typically display marked stability to thermal stress (Sastry et al. 2002). […] (FIG. 28).

[4] = target: T1, citrate synthase (CS) (Sus scrofa, UniProt P00889); test: Suppression of heat-induced aggregation of citrate synthase (chaperone assay); assay type: biochemical; settings: 0.8 μM CS, 43° C.
T1 construct: purchased Sigma
T1 sequence (P00889 28-464): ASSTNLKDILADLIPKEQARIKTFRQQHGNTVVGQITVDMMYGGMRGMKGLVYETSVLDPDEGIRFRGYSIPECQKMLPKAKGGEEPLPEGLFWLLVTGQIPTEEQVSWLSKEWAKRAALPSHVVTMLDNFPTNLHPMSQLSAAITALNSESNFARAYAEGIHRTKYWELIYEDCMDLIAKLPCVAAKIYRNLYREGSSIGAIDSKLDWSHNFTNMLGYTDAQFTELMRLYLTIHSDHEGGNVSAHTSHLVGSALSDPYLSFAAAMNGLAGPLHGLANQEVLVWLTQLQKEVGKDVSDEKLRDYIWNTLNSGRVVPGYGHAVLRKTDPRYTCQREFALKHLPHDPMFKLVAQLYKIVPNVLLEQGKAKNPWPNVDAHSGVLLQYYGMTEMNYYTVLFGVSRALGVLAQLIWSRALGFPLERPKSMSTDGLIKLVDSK
Experimental: To test the redox regulation of DJ-1, the inventors assayed chaperone activity in the CS aggregation assay in the presence or absence of the reducing agent DTT. […] (FIG. 22D). […] To further test whether redox regulation might govern DJ-1 chaperone activity, reactivation studies using reduced DJ-1 were performed. DTT-reduced DJ-1 was incubated with H2O2 (10 mM in aggregation buffer for 10 min at 4° C. followed by dialysis against aggregation buffer for 2 h), and subsequently chaperone activity was measured in the CS thermal aggregation assay. […] This was not an indirect effect of residual H2O2 on CS aggregation, as H2O2 treatment of CS increased aggregation (unpublished data).
CS aggregation was performed in 40 mM HEPES (pH 7.8), 20 mM potassium hydroxinde, 50 mM potassium chloride, and 10 mM ammonium sulfate, and monitored in a thermostat-controlled fluorescence spectrophotometer with excitation and emission wavelengths at 500 nm and slit widths at 2.5 nm. Insulin aggregation was performed as described (Giasson et al. 2000). CS, insulin, RNase A, and GST were obtained from Sigma; human Hsp27 was obtained from Stressgen.

[5] = system: DJ-1-deficient ES cells; test: Rescue of DJ-1-deficient ES cells from H2O2, MTT viability; assay type: cell-based, murine; settings: transient transfection, 10 μM H2O2 for 15 h
Experimental: (A) DJ-1 cysteine-to-alanine mutants C106A, C53A, and a triple mutant that harbors mutations at all three cysteines in DJ-1 (C106A/C53A/C46A), as well as L166P, were tested for in vitro chaperone activity by CS aggregation suppression assay. (B) Self-association of DJ-1 cysteine mutants. Murine neuroblastoma CAD cells were transiently cotransfected with Flag-tagged human DJ-1 vectors (either WT or mutant) along with WT YFP-tagged human DJ-1. Lysates were immunoprecipitated with anti-Flag antibodies and probed by Western blotting with an antibody specific for human DJ-1. […] Lysates represent 20% of the input for the immunoprecipitate; Flag-DJ-1 migrates at 22 kDa, and YFP-DJ-1 migrates at 50 kDa. (C) DJ-1-deficient ES cells were transiently transfected with vector alone, WT DJ-1, or DJ-1 cysteine mutants, and exposed to 10 μM H2O2 for 15 h followed by MTT assay. The viability of the cells in the absence of drug treatment was not altered by the expression of WT or mutant DJ-1). Data are shown as the mean±SEM and were analyzed by ANOVA with Fisher's post-hoc test. *p<0.05.
To confirm that altered sensitivity to oxidative stress is a consequence of the loss of DJ-1, ‘rescue’ experiments by overexpressing wild-type or mutant human DJ-1 in ‘knockout’ ES cells were performed. Plasmids encoding human wild-type DJ-1, PD-associated L166P mutant DJ-1, or vector alone, were transiently transfected into DJ-1 deficient clones, and these were subsequently assayed for sensitivity to H2O2 using the MTT viability assay.
In Vivo Assays. ES cells plated in 96-well format (2.3×10^4 cells/well) were treated for 15 hours with H2O2 in ES media deficient in β-mercaptoethanol (Abeliovich et al. 2000). Cell viability (as a percent of untreated control) was determined by MTT assay in triplicate (Fezoui et al. 2000). Annexin V/Propidium Iodide (Molecular probes) staining was performed per the manufacturer's instructions. For dihydrorhodamine-123 staining (DHR, Molecular probes) (Walrand et al. 2003), cells were preincubated for 30 min with DHR (5 μM), washed with PBS, then treated with H2O2 in ES media deficient in β-mercaptoethanol for 15 min at 37° C. The FACS analysis was performed using a FACSTAR sorter (Becton Dickinson). Dopamine uptake assay was performed essentially as described (Farrer et al. 1998). Reported values represent specific uptake from which non-specific uptake, determined in the presence of mazindol, was subtracted, and normalized for protein content (BCA kit, Pierce).

[6] = system: Undifferentiated ES cells; test: Q333P mutant NFL toxicity, MTT reduction, undifferentiated ES cells; assay type: cell-based; settings: 72 h
Experimental: FIG. 30 depicts the additional studies of DJ-1 mutations. […] Cells from FIG. 4M were quantified via ToPro3 nuclear staining and are expressed as number of cells per field from ten independent fields in each of three wells. Data are shown as the mean±SEM and were analyzed by ANOVA with Fisher's post-hoc test. *p<0. […] GFP positive transfected cells from FIG. 5A-5L were quantified and are expressed as number of transfected cells per field from ten independent fields in each of three wells. Data are shown as the mean±SEM and were analyzed by ANOVA with Fisher's post-hoc test. *p<0. (C) Overexpression of WT DJ-1, but not L166P mutant DJ-1, rescues cells from Q333P mutant NFL toxicity. HeLa cells were transfected with Q333P mutant NFL along with WT human DJ-1, L166P mutant DJ-1, or vector control. After 72 h, cells were assayed by MTT reduction assay (which detects reduction of 3-(4,5-dimethylthiazol-2-yl)-2,5-diphenyltetrazolium bromide by metabolic enzymes) (Martinat et al. 2004). Data are shown as the mean±SEM and were analyzed by ANOVA with Fisher's post-hoc test. *p<0. […] Undifferentiated ES cells were transfected with Q333P mutant NFL along with WT human DJ-1, C53A mutant DJ-1, or vector control. After 72 h, cells were assayed by MTT reduction assay (Martinat et al. 2004). Data are shown as the mean±SEM and were analyzed by ANOVA with Fisher's post-hoc test. *p<0. […]

[7] = system: DY-1 ES cells; test: Candidate soluble factors in DY-1 ES cell differentiation to dopamine neurons; assay type: cell-based, murine; settings: added at stages 4-5 of differentiation
Experimental: The availability of marked ES-derived ‘late’ dopamine neurons should facilitate the analysis of candidate soluble and cell-associated factors in the differentiation process. […] Briefly, DY-1 ES cells were differentiated using EB or SDIA and candidate factors were added to the standard differentiation protocol at stages 4-5 of differentiation (Lee et al., 2000).

Row | Molecule | accumulation of NFL inclusions [1] | number of cells containing αSyn aggregates [2] | thermal unfolding transition [3] | suppression of heat-induced aggregation of CS (chaperone activity) [4] | viability of DJ-1 knockout cells in the presence of H2O2 [5] | rescue from Q333P mutant NFL toxicity [6] | generation of late dopamine neurons (eYFP fluorescence, DAT immunoreactivity, late DN markers) [7]
1 | L166P DJ-1: Parkinsonism-associated L166P mutant of human DJ-1, recombinant or plasmid-expressed (protein, UniProt Q99497 1-189, looked up, variant L166P) MASKRALVILAKGAEEMETVIPVDVMRRAGIKVTVAGLAGKDPVQCSRDVVICPDASLEDAKKEGPYDVVVLPGGNLGAQNLSESAAVKEILKEQENRKGLIAAICAGPTALLAHEIGFGSKVTTHPLAKDKMMNGGHYTYSENRVEKDGLILTSRGPGTSFEFAPAIVEALNGKEVAAQVKAPLVLKD | failed to inhibit | fails to do so | does not exhibit a thermal unfolding transition | abrogated chaperone activity | did not significantly alter the viability | – | –
2 | C53A: DJ-1 cysteine-to-alanine mutant at cysteine 53 (protein, UniProt Q99497 1-189, looked up, variant C53A) MASKRALVILAKGAEEMETVIPVDVMRRAGIKVTVAGLAGKDPVQCSRDVVIAPDASLEDAKKEGPYDVVVLPGGNLGAQNLSESAAVKEILKEQENRKGLIAAICAGPTALLAHEIGFGSKVTTHPLAKDKMMNGGHYTYSENRVEKDGLILTSRGPGTSFEFALAIVEALNGKEVAAQVKAPLVLKD | – | – | – | completely abrogates chaperone activity | failed to protect | unable to rescue | –
3 | Noggin: soluble Noggin, inhibits BMP signaling (protein, UniProt Q13253 28-232, looked up) Noggin: QHYLHIRPAPSDNLPLVDLIEHPDPIFDPKEKDLNETLLRSLLGGHYDPGFMATSPPEDRPGGGGGAAGGAEDLAELDQLLRQRPSGAMPSEIKGLEFSEGLAQGKKQRLSKKLRRKLQMWLWSQTFCPVLYAWNDLGSRFWPRYVKVGSCFSKRSCSVPEGMVCKPSKSVHLTVLRWRCQRRGGQRCGWIPIQYPIISECKCSC | – | – | – | – | – | – | did not detect any effect

Source: patent US20060171935A1, “Protecting cell therapy for neurological disorders including Parkinson's disease” (priority 2005, published 2006)
